Here are results for 1 substance from PMC3153463.

The experiment deals with H103C mutant of RAV-1 IN CCD (RAV-1 IN CCD_(H103C)), residues 53-199 (Rous-associated virus type 1 (RAV-1)). In words: cross-linking; engineered Cys103-Cys103 disulfide bond; denaturing SDS-PAGE in non-reducing conditions; mass spectrometry (MALDI-TOF) of tryptic peptides.

“H103C mutant of RAV-1 IN CCD (RAV-1 IN CCD_(H103C)), residues 53-199 (domain or fragment)”: the stoichiometry N is 2.

By stoichiometry N is commonly meant the number of molecules, sites or subunits per partner or assembly.
